Data set [1] deals with the molecule itself. The data set can be described thus: SAXS; home source, I(0)/c, without ligand; 4 °C, pH 8.0, 1.2 to 5 mg/ml protein.
Data set [2] deals with the molecule itself. The data set can be described thus: AUC; sedimentation equilibrium with 50-70 μM LIN-3^EGF added; 1 to 8 μM receptor, 10 mM Hepes pH 8.0, 150 mM NaCl, 20 °C, three speeds; dimer to monomers.
Data set [3] concerns the molecule itself. As to the kind of experiment: AUC; sedimentation equilibrium, without ligand; 1 to 8 μM receptor, 10 mM Hepes pH 8.0, 150 mM NaCl, 20 °C, three speeds; dimer to monomers.
Data set [4] deals with the molecule itself. The data set can be described thus: SEC; unliganded sLET-23 during initial purification; Superose 6 10/300 GL, 10 mM Hepes pH 8.0, 150 mM NaCl.

From publication PMC4465127 (Nature Communications, 2015) come the findings set out here.

B1: sLET-23ΔV (LET-23 extracellular region with domain V deleted) (domain or fragment, C. elegans, UniProt P24348 21-645, looked up)
chain: FGNSNAQLWKRCVSPQDCLCSGTTNGISRYGTGNILEDLETMYRGCRRVYGNLEITWIEANEIKKWRESTNSTVDPKNEDSPLKSINFFDNLEEIRGSLIIYRANIQKISFPRLRVIYGDEVFHDNALYIHKNDKVHEVVMRELRVIRNGSVTIQDNPKMCYIGDKIDWKELLYDPDVQKVETTNSHQHCYQNGKSMAKCHESCNDKCWGSGDNDCQRVYRSVCPKSCSQCFYSNSTSSYECCDSACLGGCTGHGPKNCIACSKYELDGICIETCPSRKIFNHKTGRLVFNPDGRYQNGNHCVKECPPELLIENDVCVRHCSDGHHYDATKDVRECEKCRSSSCPKICTVDGHLTNETLKNLEGCEQIDGHLIIEHAFTYEQLKVLETVKIVSEYITIVQQNFYDLKFLKNLQIIEGRKLHNVRWALAIYQCDDLEELSLNSLKLIKTGAVLIMKNHRLCYVSKIDWSSIITSKGKDNKPSLAIAENRDSKLCETEQRVCDKNCNKRGCWGKEPEDCLECKTWKSVGTCVEKCDTKGFLRNQTSMKCERCSPECETCNGLGELDCLTCRHKTLYNSDFGNRMECVHDCPVSHFPTQKNVCEKCHPTCYDNGCTGPDSNLGYGGCK
notes: signal peptide in the construct; LET-23 of C. elegans, extracellular domains I-IV (domain V deleted); Dimer by SEC-MALS, SE-AUC and SAXS; source: Sf9 cells (baculovirus), purified from conditioned medium (Ni-NTA, cation exchange, Superose 6)
For the protein B1, the “stoichiometry N” value in data set [1] was found to be 2.

B2: sLET-23ΔIV/V (LET-23 extracellular region with domains IV and V deleted) (domain or fragment, C. elegans, UniProt P24348 21-539, looked up)
chain: FGNSNAQLWKRCVSPQDCLCSGTTNGISRYGTGNILEDLETMYRGCRRVYGNLEITWIEANEIKKWRESTNSTVDPKNEDSPLKSINFFDNLEEIRGSLIIYRANIQKISFPRLRVIYGDEVFHDNALYIHKNDKVHEVVMRELRVIRNGSVTIQDNPKMCYIGDKIDWKELLYDPDVQKVETTNSHQHCYQNGKSMAKCHESCNDKCWGSGDNDCQRVYRSVCPKSCSQCFYSNSTSSYECCDSACLGGCTGHGPKNCIACSKYELDGICIETCPSRKIFNHKTGRLVFNPDGRYQNGNHCVKECPPELLIENDVCVRHCSDGHHYDATKDVRECEKCRSSSCPKICTVDGHLTNETLKNLEGCEQIDGHLIIEHAFTYEQLKVLETVKIVSEYITIVQQNFYDLKFLKNLQIIEGRKLHNVRWALAIYQCDDLEELSLNSLKLIKTGAVLIMKNHRLCYVSKIDWSSIITSKGKDNKPSLAIAENRDSKLCETEQRVCDKNCNKRGCWGKEPEDCLE
notes: signal peptide in the construct; LET-23 of C. elegans, extracellular domains I-III (domains IV and V deleted); source: Sf9 cells (baculovirus), purified from conditioned medium (Ni-NTA, cation exchange, Superose 6)
For B2, the values for the Kd in data set [2] and in data set [3] were 5 µM and 30 µM, respectively.

B3: LET-23 extracellular region (sLET-23) (domain or fragment, C. elegans, UniProt P24348 21-819, looked up)
chain: FGNSNAQLWKRCVSPQDCLCSGTTNGISRYGTGNILEDLETMYRGCRRVYGNLEITWIEANEIKKWRESTNSTVDPKNEDSPLKSINFFDNLEEIRGSLIIYRANIQKISFPRLRVIYGDEVFHDNALYIHKNDKVHEVVMRELRVIRNGSVTIQDNPKMCYIGDKIDWKELLYDPDVQKVETTNSHQHCYQNGKSMAKCHESCNDKCWGSGDNDCQRVYRSVCPKSCSQCFYSNSTSSYECCDSACLGGCTGHGPKNCIACSKYELDGICIETCPSRKIFNHKTGRLVFNPDGRYQNGNHCVKECPPELLIENDVCVRHCSDGHHYDATKDVRECEKCRSSSCPKICTVDGHLTNETLKNLEGCEQIDGHLIIEHAFTYEQLKVLETVKIVSEYITIVQQNFYDLKFLKNLQIIEGRKLHNVRWALAIYQCDDLEELSLNSLKLIKTGAVLIMKNHRLCYVSKIDWSSIITSKGKDNKPSLAIAENRDSKLCETEQRVCDKNCNKRGCWGKEPEDCLECKTWKSVGTCVEKCDTKGFLRNQTSMKCERCSPECETCNGLGELDCLTCRHKTLYNSDFGNRMECVHDCPVSHFPTQKNVCEKCHPTCYDNGCTGPDSNLGYGGCKQCKYAVKYENDTIFCLQSSGMNNVCVENDLPNYYISTYDTEGVIETHCEKCSISCKTCSSAGRNVVQNKCVCKHVEYQPNPSERICMDQCPVNSFMVPDTNNTVCKKCHHECDQNYHCANGQSTGCQKCKNFTVFKGDIAQCVSECPKNLPFSNPANGECLDYDIASRQRKTRM
notes: signal peptide in the construct; LET-23, the C. elegans EGFR orthologue, extracellular region with domains I-V; Glycosylated (six predicted N-glycosylation sites); Constitutive dimer by SEC and SE-AUC; also called isolated LET-23 extracellular region; C. elegans EGFR extracellular region; source: Sf9 cells (baculovirus), purified from conditioned medium (Ni-NTA, cation exchange, Superose 6)
For the protein B3, the “stoichiometry N” value in data set [4] is 2. This protein also returned a Kd in data set [3] of under 1 µM.

As usually defined, the stoichiometry N is the number of molecules, sites or subunits per partner or assembly. The term Kd denotes a measure of binding affinity in units of concentration.
